# Results reported in PMC4160250 (2014).
# Changes are numbered by the printed parent chain.
# T1: UbP_C Q219A/I221A (human, UniProt Q8WUN7 129-234, Q219A | I221A)
# T1 sequence: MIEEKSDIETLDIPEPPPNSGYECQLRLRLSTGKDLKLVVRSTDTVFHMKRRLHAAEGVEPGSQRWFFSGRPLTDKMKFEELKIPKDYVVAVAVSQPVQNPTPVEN
# T2: UbP_C F195A (human, UniProt Q8WUN7 129-234, F195A)
# T2 sequence: T1 sequence with F67A, A91Q, A93I
# B1: USP5_UBA1 (first UBA domain of USP5, residues 631-692) (domain or fragment)
# chain: MLDESVIIQLVEMGFPMDACRKAVYYTGNSGAEAAMNWVMSHMDDPDFANPLILPGSSGPGS
# B2: UbP_C (C-terminal part of DC-UbP, residues 129-234), His-tagged (domain or fragment)
# chain: T1 sequence with A91Q, A93I
# Experiments:
# Experiment in all cases: NMR
# [1] = target: T1, UbP_C Q219A/I221A
# [2] = target: T2, UbP_C F195A
# [3] = target: B1
Kd [1],Kd [2],Kd [3],Binder
770 µM,> 3 mM,,B1
,,800 µM,B2
